One experiment has as its target T1, LZTR1 R810W-FLAG (human, UniProt Q8N653 1-840).
T1 construct: Stably expressed in U87 cells by lentivirus; also called LZTR1-FLAG-R810W; LZTR1 RW; not shown: FLAG tag
T1 sequence (looked up): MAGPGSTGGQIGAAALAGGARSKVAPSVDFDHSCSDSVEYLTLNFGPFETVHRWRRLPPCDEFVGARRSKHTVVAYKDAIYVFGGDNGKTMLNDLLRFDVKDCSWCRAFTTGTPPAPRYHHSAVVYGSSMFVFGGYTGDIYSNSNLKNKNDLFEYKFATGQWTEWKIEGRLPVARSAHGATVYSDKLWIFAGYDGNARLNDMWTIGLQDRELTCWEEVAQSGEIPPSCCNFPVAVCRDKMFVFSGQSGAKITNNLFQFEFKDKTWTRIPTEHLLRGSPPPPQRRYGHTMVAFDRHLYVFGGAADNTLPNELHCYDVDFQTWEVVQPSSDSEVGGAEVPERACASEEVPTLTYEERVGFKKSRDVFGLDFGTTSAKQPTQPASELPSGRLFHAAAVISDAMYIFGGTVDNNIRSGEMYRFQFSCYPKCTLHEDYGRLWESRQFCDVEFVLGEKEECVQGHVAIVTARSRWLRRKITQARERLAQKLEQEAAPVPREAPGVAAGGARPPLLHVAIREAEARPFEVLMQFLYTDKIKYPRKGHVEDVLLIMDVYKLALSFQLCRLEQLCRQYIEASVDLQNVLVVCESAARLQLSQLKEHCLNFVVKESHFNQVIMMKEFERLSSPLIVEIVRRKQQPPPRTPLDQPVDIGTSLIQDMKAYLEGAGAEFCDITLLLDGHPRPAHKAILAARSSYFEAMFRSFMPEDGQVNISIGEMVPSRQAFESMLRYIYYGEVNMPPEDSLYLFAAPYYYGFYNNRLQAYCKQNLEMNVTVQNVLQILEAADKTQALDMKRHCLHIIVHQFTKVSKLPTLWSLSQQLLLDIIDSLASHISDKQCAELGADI
As to the kind of experiment: IP/MS, LZTR1 R810W-FLAG, U87. Put shortly: (§1)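 Read-out: spectral counts from LC-MS/MS (Orbitrap Fusion) after MaxQuant identification. Variable modifications were Met oxidation, protein N-terminal acetylation and N/Q deamidation.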

In a further experiment the target is T2, LZTR1-FLAG (human, UniProt Q8N653 1-840).
T2 construct: Expressed in HEK 293T, HeLa or U87 cells; used as cell lysate; also called LZTR1 wild type-FLAG; LZTR1 WT; not shown: FLAG tag at the C-terminus
T2 sequence (looked up): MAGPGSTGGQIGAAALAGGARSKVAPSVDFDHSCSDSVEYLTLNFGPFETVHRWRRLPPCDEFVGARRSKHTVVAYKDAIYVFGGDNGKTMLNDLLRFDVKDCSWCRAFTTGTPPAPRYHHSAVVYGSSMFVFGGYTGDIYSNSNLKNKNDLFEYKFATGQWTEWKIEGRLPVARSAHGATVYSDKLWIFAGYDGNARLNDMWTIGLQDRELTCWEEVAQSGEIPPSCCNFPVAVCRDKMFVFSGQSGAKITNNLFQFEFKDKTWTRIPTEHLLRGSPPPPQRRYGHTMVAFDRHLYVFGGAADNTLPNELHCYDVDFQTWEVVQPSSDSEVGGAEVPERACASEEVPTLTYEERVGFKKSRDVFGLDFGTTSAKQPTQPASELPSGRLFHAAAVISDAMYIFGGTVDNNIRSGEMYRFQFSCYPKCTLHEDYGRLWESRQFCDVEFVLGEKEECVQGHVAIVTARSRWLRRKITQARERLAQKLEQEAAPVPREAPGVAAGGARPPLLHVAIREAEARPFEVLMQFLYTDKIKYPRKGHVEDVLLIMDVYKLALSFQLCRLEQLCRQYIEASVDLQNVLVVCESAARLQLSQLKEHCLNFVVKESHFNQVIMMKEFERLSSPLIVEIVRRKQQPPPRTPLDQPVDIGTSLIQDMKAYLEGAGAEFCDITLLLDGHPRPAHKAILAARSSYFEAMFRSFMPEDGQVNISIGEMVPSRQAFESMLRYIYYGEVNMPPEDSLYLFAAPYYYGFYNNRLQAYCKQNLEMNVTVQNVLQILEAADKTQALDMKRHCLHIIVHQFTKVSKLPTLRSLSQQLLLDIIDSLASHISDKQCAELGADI
As to the kind of experiment: IP/MS, LZTR1 wild type-FLAG, U87. The method, boiled down: as §1

B1: POR (other, human, UniProt P16435 2-677, looked up)
chain: GDSHVDTSSTVSEAVAEEVSLFSMTDMILFSLIVGLLTYWFLFRKKKEEVPEFTKIQTLTSSVRESSFVEKMKKTGRNIIVFYGSQTGTAEEFANRLSKDAHRYGMRGMSADPEEYDLADLSSLPEIDNALVVFCMATYGEGDPTDNAQDFYDWLQETDVDLSGVKFAVFGLGNKTYEHFNAMGKYVDKRLEQLGAQRIFELGLGDDDGNLEEDFITWREQFWPAVCEHFGVEATGEESSIRQYELVVHTDIDAAKVYMGEMGRLKSYENQKPPFDAKNPFLAAVTTNRKLNQGTERHLMHLELDISDSKIRYESGDHVAVYPANDSALVNQLGKILGADLDVVMSLNNLDEESNKKHPFPCPTSYRTALTYYLDITNPPRTNVLYELAQYASEPSEQELLRKMASSSGEGKELYLSWVVEARRHILAILQDCPSLRPPIDHLCELLPRLQARYYSIASSSKVHPNSVHICAVVVEYETKAGRINKGVATNWLRAKEPAGENGGRALVPMFVRKSQFRLPFKATTPVIMVGPGTGVAPFIGFIQERAWLRQQGKEVGETLLYYGCRRSDEDYLYREELAQFHRDGALTQLNVAFSREQSHKVYVQHLLKQDREHLWKLIEGGAHIYVCGDARNMARDVQNTFYDIVAELGAMEHAQAVDYIKKLMTKGRYSLDVWS
Consider B1, for which the binding result with LZTR1 R810W-FLAG and in the experiment with LZTR1-FLAG was “binds” each time.

B2: RAP1GDS1 (other, human, UniProt P52306 1-607, looked up)
chain: MDNLSDTLKKLKITAVDKTEDSLEGCLDCLLQALAQNNTETSEKIQASGILQLFASLLTPQSSCKAKVANIIAEVAKNEFMRIPCVDAGLISPLVQLLNSKDQEVLLQTGRALGNICYDSHEGRSAVDQAGGAQIVIDHLRSLCSITDPANEKLLTVFCGMLMNYSNENDSLQAQLINMGVIPTLVKLLGIHCQNAALTEMCLVAFGNLAELESSKEQFASTNIAEELVKLFKKQIEHDKREMIFEVLAPLAENDAIKLQLVEAGLVECLLEIVQQKVDSDKEDDITELKTGSDLMVLLLLGDESMQKLFEGGKGSVFQRVLSWIPSNNHQLQLAGALAIANFARNDANCIHMVDNGIVEKLMDLLDRHVEDGNVTVQHAALSALRNLAIPVINKAKMLSAGVTEAVLKFLKSEMPPVQFKLLGTLRMLIDAQAEAAEQLGKNVKLVERLVEWCEAKDHAGVMGESNRLLSALIRHSKSKDVIKTIVQSGGIKHLVTMATSEHVIMQNEALVALALIAALELGTAEKDLESAKLVQILHRLLADERSAPEIKYNSMVLICALMGSECLHKEVQDLAFLDVVSKLRSHENKSVAQQASLTEQRLTVES
With B2, the binding result in the experiment with LZTR1 R810W-FLAG and with LZTR1-FLAG was “binds” in each case.

B3: RANBP9 (other, human, UniProt Q96S59 1-729, looked up)
chain: MSGQPPPPPPQQQQQQQQLSPPPPAALAPVSGVVLPAPPAVSAGSSPAGSPGGGAGGEGLGAAAAALLLHPPPPPPPATAAPPPPPPPPPPPASAAAPASGPPAPPGLAAGPGPAGGAPTPALVAGSSAAAPFPHGDSALNEQEKELQRRLKRLYPAVDEQETPLPRSWSPKDKFSYIGLSQNNLRVHYKGHGKTPKDAASVRATHPIPAACGIYYFEVKIVSKGRDGYMGIGLSAQGVNMNRLPGWDKHSYGYHGDDGHSFCSSGTGQPYGPTFTTGDVIGCCVNLINNTCFYTKNGHSLGIAFTDLPPNLYPTVGLQTPGEVVDANFGQHPFVFDIEDYMREWRTKIQAQIDRFPIGDREGEWQTMIQKMVSSYLVHHGYCATAEAFARSTDQTVLEELASIKNRQRIQKLVLAGRMGEAIETTQQLYPSLLERNPNLLFTLKVRQFIEMVNGTDSEVRCLGGRSPKSQDSYPVSPRPFSSPSMSPSHGMNIHNLASGKGSTAHFSGFESCSNGVISNKAHQSYCHSNKHQSSNLNVPELNSINMSRSQQVNNFTSNDVDMETDHYSNGVGETSSNGFLNGSSKHDHEMEDCDTEMEVDSSQLRRQLCGGSQAAIERMIHFGRELQAMSEQLRRDCGKNTANKKMLKDAFSLLAYSDPWNSPVGNQLDPIQREPVCSALNSAILETHNLPKQPPLALAMGQATQCLGLMARSGIGSCAFATVEDYLH
As for B3, the binding result in the experiment with LZTR1 R810W-FLAG and with LZTR1-FLAG was “binds” each time.

B4: PPP6C (other, human, UniProt O00743 1-305, looked up)
chain: MAPLDLDKYVEIARLCKYLPENDLKRLCDYVCDLLLEESNVQPVSTPVTVCGDIHGQFYDLCELFRTGGQVPDTNYIFMGDFVDRGYYSLETFTYLLALKAKWPDRITLLRGNHESRQITQVYGFYDECQTKYGNANAWRYCTKVFDMLTVAALIDEQILCVHGGLSPDIKTLDQIRTIERNQEIPHKGAFCDLVWSDPEDVDTWAISPRGAGWLFGAKVTNEFVHINNLKLICRAHQLVHEGYKFMFDEKLVTVWSAPNYCYRCGNIASIMVFKDVNTREPKLFRAVPDSERVIPPRTTTPYFL
As for B4, the binding result in the experiment with LZTR1 R810W-FLAG and with LZTR1-FLAG was “binds” in each case.

B5: PTOV1 (other, human, UniProt Q86YD1 1-416, looked up)
chain: MVRPRRAPYRSGAGGPLGGRGRPPRPLVVRAVRSRSWPASPRGPQPPRIRARSAPPMEGARVFGALGPIGPSSPGLTLGGLAVSEHRLSNKLLAWSGVLEWQEKRRPYSDSTAKLKRTLPCQAYVNQGENLETDQWPQKLIMQLIPQQLLTTLGPLFRNSQLAQFHFTNRDCDSLKGLCRIMGNGFAGCMLFPHISPCEVRVLMLLYSSKKKIFMGLIPYDQSGFVSAIRQVITTRKQAVGPGGVNSGPVQIVNNKFLAWSGVMEWQEPRPEPNSRSKRWLPSHVYVNQGEILRTEQWPRKLYMQLIPQQLLTTLVPLFRNSRLVQFHFTKDLETLKSLCRIMDNGFAGCVHFSYKASCEIRVLMLLYSSEKKIFIGLIPHDQGNFVNGIRRVIANQQQVLQRNLEQEQQQRGMGG
For B5, the binding result with LZTR1 R810W-FLAG and in the experiment with LZTR1-FLAG was “binds” throughout.

B6: RABGEF1 (other, human, UniProt Q9UJ41 1-491, looked up)
chain: MSLKSERRGIHVDQSDLLCKKGCGYYGNPAWQGFCSKCWREEYHKARQKQIQEDWELAERLQREEEEAFASSQSSQGAQSLTFSKFEEKKTNEKTRKVTTVKKFFSASSRVGSKKEIQEAKAPSPSINRQTSIETDRVSKEFIEFLKTFHKTGQEIYKQTKLFLEGMHYKRDLSIEEQSECAQDFYHNVAERMQTRGKVPPERVEKIMDQIEKYIMTRLYKYVFCPETTDDEKKDLAIQKRIRALRWVTPQMLCVPVNEDIPEVSDMVVKAITDIIEMDSKRVPRDKLACITKCSKHIFNAIKITKNEPASADDFLPTLIYIVLKGNPPRLQSNIQYITRFCNPSRLMTGEDGYYFTNLCCAVAFIEKLDAQSLNLSQEDFDRYMSGQTSPRKQEAESWSPDACLGVKQMYKNLDLLSQLNERQERIMNEAKKLEKDLIDWTDGIAREVQDIVEKYPLEIKPPNQPLAAIDSENVENDKLPPPLQPQVYAG
B6: the binding result in the experiment with LZTR1 R810W-FLAG and in the experiment with LZTR1-FLAG was “binds” in each case.

For the origin of these results see patent US20250262210A1 (TRUSTEES OF COLUMBIA UNIVERSITY IN THE CITY OF NEW YORK, published 2025).
